Patent US20250092133A1 (Amgen, published 2025)

Assays:
Assay in all cases: flow cytometry, transfected CHO cells; crude undiluted periplasmic scFv extract; anti-FLAG M2 + anti-mouse IgG Fcγ-PE; control PBS/2% FCS
[1] = target: T1, Hu CDH3 Dom1C mu (aa 180-215), human/mouse chimeric CDH3 on CHO cells (chimeric hu/mu, UniProt P22223 108-681 (human entry))
T1 chain: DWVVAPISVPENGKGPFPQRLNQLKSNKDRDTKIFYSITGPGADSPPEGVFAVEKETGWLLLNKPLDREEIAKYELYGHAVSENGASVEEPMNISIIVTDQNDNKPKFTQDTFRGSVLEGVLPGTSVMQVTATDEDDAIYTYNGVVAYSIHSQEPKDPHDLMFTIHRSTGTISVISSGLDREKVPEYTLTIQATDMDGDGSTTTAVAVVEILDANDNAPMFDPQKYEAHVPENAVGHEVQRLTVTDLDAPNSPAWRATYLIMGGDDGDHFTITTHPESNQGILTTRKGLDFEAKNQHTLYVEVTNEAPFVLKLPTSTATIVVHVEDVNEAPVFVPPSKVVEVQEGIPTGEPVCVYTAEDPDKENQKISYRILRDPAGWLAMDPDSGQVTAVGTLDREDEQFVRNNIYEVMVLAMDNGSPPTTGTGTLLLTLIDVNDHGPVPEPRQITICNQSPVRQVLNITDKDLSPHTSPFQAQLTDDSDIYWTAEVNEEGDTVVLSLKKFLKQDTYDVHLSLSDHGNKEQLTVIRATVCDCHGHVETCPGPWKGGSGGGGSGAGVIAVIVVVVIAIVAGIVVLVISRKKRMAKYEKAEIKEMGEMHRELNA
Procedure: (§1) Cells transfected with human or murine CDH3, or with the chimeric human/mouse CDH3 molecules (see Example 1) were stained with crude, undiluted periplasmic extract containing scFv binding to human/macaque CDH3. […] As negative control, cells were incubated with PBS/2% FCS instead of the periplasmic extract. The samples were measured by flow cytometry.

[2] = target: T2, human CDH3 (P-cadherin) on cells (human, UniProt P22223 108-829)
T2 construct: The entry includes signal peptide and pro-peptide; extracellular domain D1 starts at aa 108; also called hu CDH3; hu CDH-3
Procedure: as §1

[3] = target: T3, Hu CDH3 Dom2 mu (aa 216-327), human/mouse chimeric CDH3 on CHO cells (chimeric hu/mu)
T3 chain: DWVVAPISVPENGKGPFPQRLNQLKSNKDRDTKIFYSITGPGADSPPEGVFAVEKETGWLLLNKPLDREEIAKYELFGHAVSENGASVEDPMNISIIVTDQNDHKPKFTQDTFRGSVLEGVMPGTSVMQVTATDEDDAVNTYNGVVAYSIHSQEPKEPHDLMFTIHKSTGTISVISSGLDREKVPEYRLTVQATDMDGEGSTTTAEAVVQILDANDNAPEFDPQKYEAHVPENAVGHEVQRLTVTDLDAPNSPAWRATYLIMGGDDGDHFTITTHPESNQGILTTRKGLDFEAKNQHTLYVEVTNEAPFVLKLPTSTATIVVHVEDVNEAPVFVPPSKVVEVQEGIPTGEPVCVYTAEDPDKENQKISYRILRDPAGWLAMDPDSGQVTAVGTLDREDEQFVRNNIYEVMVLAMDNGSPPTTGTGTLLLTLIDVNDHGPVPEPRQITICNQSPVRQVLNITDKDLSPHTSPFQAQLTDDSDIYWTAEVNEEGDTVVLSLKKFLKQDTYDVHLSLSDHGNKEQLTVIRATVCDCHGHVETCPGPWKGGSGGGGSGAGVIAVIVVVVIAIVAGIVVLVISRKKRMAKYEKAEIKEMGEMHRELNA
Procedure: as §1

Measured: binding result

B1: CDH3-9 (scFv)
scFv: EVQLVEESGGDLVKPGGSLKLSCAASGFTFSTYGMSWVRQTPDKRLEWVATISSGGHYSYYPDSVKGRFTISRDNAKNTLYLQMSSLKSEDTAMYYCASYYYGSPFAYWGQGTTVTVSSGGGGSGGGGSGGGGSELQMTQSPSSLSASLGERVSLTCRASQDIGSSLNWLQQKPDGTIKRLIYDTSSLDSGVPKRFSGSRSGSDYSLTISSLESEDFGDYYCVQYGSSPLTFGAGTKLEIK
notes: Used as crude periplasmic extract and detected through a FLAG tag; also called CDH3-9 scFv
binds: all assays above

B2: CDH3-8 (scFv)
scFv: EVQLVEQSGAEVVKPGASVKITCKASGYAFSSYWMNWVRQRPGKGLEWIGHIYPGDGDTNYNGKFKGKVTLTADKSSNTAYMQLSDLTPEDSAVYFCARDRGSFGAWFAYWGQGTTVTVSSGGGGSGGGGSGGGGSELVMTQTPSSLSASLGDRVTISCRASQDISNYLNWYQQKPDGTVKLLIYYTSRLHSGVPSRFSGSGSGTDYSLTISNLEQEDIATYFCQQGNRNPPTFGGGTKLEIK
notes: Used as crude periplasmic extract and detected through a FLAG tag; also called CDH3-8 scFv
binds: all assays above

B3: CDH3-10 scFv (scFv)
scFv: EVQLVEESGGGLVKPGGSLKLSCAASGFTFSSYAMSWVRQTPDKRLEWVATISSGGHYTYYPDSVKGRFTISRDNAKNTLYLQMSSLKSEDTAMYYCASYYYGIPFGYWGQGTTVTVSSGGGGSGGGGSGGGGSELVMTQSPSSLSASLGEGVSLTCRASQDIGINLIWLRQEPDGTIKRLIYDTSSLDSGVPKRFSGSRSGSDYSLTISSLESEDFVHYYCLQYGSSPLTFGAGTKLEIK
binds: all assays above
